The values that follow come from article PMC6375650 (PLoS Biology, 2019).

Test in all cases: cryo-EM structure
Settings in all cases: both partners purified

The target of test [1] is T1, cleaved H7 NL HA (HA1/HA2), A/Netherlands/219/2003, ectodomain trimer (influenza A virus …, UniProt Q6VMK1).
T1 construct: copies: 3 + 3

Test [2] deals with uncleaved H7 NY HA (HA0), A/New York/107/2003, ectodomain trimer (influenza A virus (A/New York/107/2003)).
Test [3] has as its target T2, cleaved H7 Sh2 HA (HA1/HA2), A/Shanghai/2/2013, ectodomain trimer (influenza A virus (A/Shanghai/2/2013)).
T2 construct: copies: 3 + 3

Where “and” joins values, the source holds several entries; their conditions need not be identical. Identical values can stand only once.

B1: H7.5 Fab (papain digest of H7.5 IgG) (Fab, V domains shown)
VH: QVQLVQSGAEVKKPGASVKVSCKASGYTLTRYYFHWVRQAPGQGFEWMGIINPNGGGTSYAQKFGDRVIMTSDMSTSTIYMELSSLRSEDTAVYYCARDMPYYHDSGGPLFDLWGQGTLVTVSS
VL: EIVMTQSPSSLSASVGDRVTITCRPSQSISTFLNWYEQKPGKAPKLLIYDASSLQSGVPSRFSGSGSGTEFTLTISSLQPEDFATYYCQQSFSTPYTFGQGTRLEIK
For the molecule B1, the “stoichiometry N” value in test [1] is 3 Fabs per trimer and 2 Fabs per trimer; in test [2], 3 Fabs per trimer; in test [3], 3 Fabs per trimer.

As usually defined, the stoichiometry N is the number of molecules, sites or subunits per partner or assembly.
